Reference: publication doi:10.1101/2023.01.31.526478

Target: SNAP-SPIN1 (human) (UniProt Q9Y657)
Experiment: FRET or BRET

UniProt Q9Y657, sequence (Q9Y657 whole entry): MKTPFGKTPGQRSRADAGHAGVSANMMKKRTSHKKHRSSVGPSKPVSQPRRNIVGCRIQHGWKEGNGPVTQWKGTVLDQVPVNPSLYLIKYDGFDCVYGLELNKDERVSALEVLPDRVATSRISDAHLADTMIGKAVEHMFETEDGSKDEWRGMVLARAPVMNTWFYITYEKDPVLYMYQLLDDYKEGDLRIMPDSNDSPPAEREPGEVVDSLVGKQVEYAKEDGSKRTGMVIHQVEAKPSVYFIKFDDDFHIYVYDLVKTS

Substance: Halo-WDR76 (from UniProt Q9H967 1-626) (natural protein)
- FRET efficiency: 2%
